Values of other authors in PMC4716630.

Target: hMSH2 (Homo sapiens) (UniProt P43246)
Sequence (P43246 2-934): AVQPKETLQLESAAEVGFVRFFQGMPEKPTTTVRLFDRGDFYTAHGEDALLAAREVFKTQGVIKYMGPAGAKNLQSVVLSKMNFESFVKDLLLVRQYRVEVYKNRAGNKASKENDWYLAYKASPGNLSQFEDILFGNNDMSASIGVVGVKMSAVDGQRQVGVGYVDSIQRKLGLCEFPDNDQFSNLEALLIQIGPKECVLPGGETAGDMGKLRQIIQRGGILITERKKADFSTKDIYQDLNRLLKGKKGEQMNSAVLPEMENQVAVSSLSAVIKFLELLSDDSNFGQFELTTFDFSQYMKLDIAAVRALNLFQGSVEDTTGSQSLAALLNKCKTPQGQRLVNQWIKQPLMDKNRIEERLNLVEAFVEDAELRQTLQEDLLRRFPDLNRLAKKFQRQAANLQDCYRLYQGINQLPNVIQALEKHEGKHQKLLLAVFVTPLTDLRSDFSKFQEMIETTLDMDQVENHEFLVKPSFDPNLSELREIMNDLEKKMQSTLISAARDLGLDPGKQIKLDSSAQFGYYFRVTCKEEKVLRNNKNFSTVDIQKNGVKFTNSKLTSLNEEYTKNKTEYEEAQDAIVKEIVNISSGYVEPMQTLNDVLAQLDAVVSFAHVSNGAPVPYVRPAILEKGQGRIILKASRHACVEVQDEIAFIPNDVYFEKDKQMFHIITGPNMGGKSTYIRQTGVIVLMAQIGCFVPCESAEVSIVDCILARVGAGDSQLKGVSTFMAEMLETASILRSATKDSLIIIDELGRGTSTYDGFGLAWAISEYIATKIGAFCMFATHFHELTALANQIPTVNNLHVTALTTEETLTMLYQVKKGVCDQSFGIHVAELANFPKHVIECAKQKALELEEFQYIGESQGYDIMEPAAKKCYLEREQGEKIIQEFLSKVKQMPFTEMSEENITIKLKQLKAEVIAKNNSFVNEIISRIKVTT

Chain of NKG2D (P26718 whole entry): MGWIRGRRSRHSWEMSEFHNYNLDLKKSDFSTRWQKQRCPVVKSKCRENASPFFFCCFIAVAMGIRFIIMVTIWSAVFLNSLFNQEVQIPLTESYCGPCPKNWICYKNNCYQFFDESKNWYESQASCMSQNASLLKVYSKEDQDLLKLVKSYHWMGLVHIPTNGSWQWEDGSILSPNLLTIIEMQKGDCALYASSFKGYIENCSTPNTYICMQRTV

In the case of NKG2D (from UniProt P26718), the Kd is given as 132 nM.
